In patent publication US20050287542A1 (YALE UNIVERSITY, published 2005):
Square brackets hold non-standard residues; d marks the D form. Primed or numbered codes have the meaning given here. Ends that are not written are not given here. * marks the point of attachment. acetamidofluorescein = acetamidofluorescein label attached to the side chain of a C-terminal cysteine residue (made by modifying the cysteine with 5-iodoacetamidofluorescein); acetamidofluorescein″ = acetamidofluorescein (5-iodoacetamidofluorescein attached to the C-terminal Cys); Fluorescein(5-NHCOCH2) = O=C(C*)Nc1ccc2c(c1)C(=O)OC21c2ccc(O)cc2Oc2cc(O)ccc21; pS = N[C@@H](COP(=O)(O)O)C(=O)O

Experiments:
[1] = molecular target: T1, HisKIX (His-tagged CBP KIX domain) (UniProt P45481 586-672); test: fluorescence polarization; end tied to the member by the Kd of Table 1
T1 construct: range 586-672; not shown: amino-terminal hexahistidine tag of pET15b

[2] = molecular target: T1, HisKIX (His-tagged CBP KIX domain); test: fluorescence polarization
[3] = molecular target: T2, GST-KIXY650A (Y650A variant of CBP KIX) (UniProt P45481 586-665, limits assumed); test: fluorescence polarization
T2 construct: domain: KIX; not shown: GST tag

calmodulin (Sigma) [4] = test: fluorescence polarization
Experimental: (§1) Binding reactions containing serially diluted target protein and 25-50 nM of fluorescein-labeled peptides (peptide^Flu) were incubated for 30 min at 25° C. Each point represents the average polarization of two to three independent samples; error bars denote standard error. […] Circular and triangular symbols indicate that HisKIX was used as the target protein; the symbols are colored as in FIG. 9 with the exception of the points for peptide C^U, which are in orange for clarity. Square symbols indicate that carbonic anhydrase was used as the target protein. […] Circular and triangular symbols indicate that HisKIX was used as the target protein, and the symbols are colored as in FIG. 9. Square symbols indicate that calmodulin was used as the target protein.

[5] = molecular target: carbonic anhydrase II (Sigma); test: fluorescence polarization
Experimental: as §1

CBP KIX variant Y658A = molecular target: T3, CBP KIX variant Y658A (UniProt P45481 586-665, limits assumed); test: fluorescence polarization
T3 construct: domain: KIX

CBP KIX variant Y658F = molecular target: T4, CBP KIX variant Y658F (UniProt P45481 586-665, limits assumed); test: fluorescence polarization
T4 construct: domain: KIX

CBP KIX variant K662A = molecular target: T5, CBP KIX variant K662A (UniProt P45481 586-665, limits assumed); test: fluorescence polarization
T5 construct: domain: KIX

[6] = molecular target: T6, CBP KIX variant Y650A (Example 20) (UniProt P45481 586-665, limits assumed); test: fluorescence polarization
T6 construct: domain: KIX

CBP KIX variant L603A = molecular target: T7, CBP KIX variant L603A (UniProt P45481 586-665, limits assumed); test: fluorescence polarization
T7 construct: domain: KIX

[7] = molecular target: T8, CBP KIX variant LL652-3AA (UniProt P45481 586-665, limits assumed); test: fluorescence polarization
T8 construct: domain: KIX

CBP KIX variant K606A = molecular target: T9, CBP KIX variant K606A (UniProt P45481 586-665, limits assumed); test: fluorescence polarization
T9 construct: domain: KIX

CBP KIX variant I657A = molecular target: T10, CBP KIX variant I657A (UniProt P45481 586-665, limits assumed); test: fluorescence polarization
T10 construct: domain: KIX

CBP KIX variant L599A = molecular target: T11, CBP KIX variant L599A (UniProt P45481 586-665, limits assumed); test: fluorescence polarization
T11 construct: domain: KIX

CBP KIX variant Q661A = molecular target: T12, CBP KIX variant Q661A (UniProt P45481 586-665, limits assumed); test: fluorescence polarization
T12 construct: domain: KIX

CBP KIX variant E655A = molecular target: T13, CBP KIX variant E655A (UniProt P45481 586-665, limits assumed); test: fluorescence polarization
T13 construct: domain: KIX

CBP KIX variant I660A = molecular target: T14, CBP KIX variant I660A (UniProt P45481 586-665, limits assumed); test: fluorescence polarization
T14 construct: domain: KIX

calmodulin (Sigma) [8] = test: fluorescence polarization, calmodulin
Experimental: as §1

[9] = molecular target: carbonic anhydrase II (Sigma); test: fluorescence polarization, carbonic anhydrase II
calmodulin (Sigma) [10] = test: fluorescence polarization, calmodulin (text differs from Table 2)
Experimental: 6) Fluorescence polarization—Fluorescence polarization experiments were performed with a Photon Technology International QuantaMaster C-60 spectrofluorimeter at 25° C. in a 1 cm pathlength Hellma cuvette. […] Briefly, an aliquot of fluorescently labeled peptide was added to a final concentration of 25-50 nM and the binding reaction was incubated for 30 min at 25° C. Thirty minutes was a sufficient length of time for the binding reaction to reach equilibrium, as judged by an absence of change in the observed polarization value of the sample with the highest HisKIX concentration over 1 h. […] For specificity measurements, carbonic anhydrase II (Sigma) or calmodulin (Sigma) was used as the target protein in place of HisKIX, and fluorescently labeled peptide was used at a final concentration of 50 nM.

[11] = molecular target: T15, wild type CBP KIX (Example 20) (UniProt P45481 586-665, limits assumed); test: fluorescence polarization
T15 construct: domain: KIX

[12] = molecular target: carbonic anhydrase II (Sigma); test: fluorescence emission change of labelled peptide, PBS
calmodulin (Sigma) [13] = test: fluorescence emission change of labelled peptide, HEPES/KCl/CaCl2 buffer
calmodulin (Sigma) [14] = test: fluorescence polarization; remark: listed apart in the source
[15] = molecular target: T1, HisKIX (His-tagged CBP KIX domain); test: fluorescence polarization; remark: listed apart in the source
Experimental: as §1

[16] = molecular target: T1, HisKIX (His-tagged CBP KIX domain); test: fluorescence polarization, HisKIX, 25 C
[17] = molecular target: T1, HisKIX (His-tagged CBP KIX domain); test: fluorescence polarization competition; displaces 25 nM fluorescein-labelled PPKID4^P from 1.5 µM HisKIX
[18] = molecular target: T1, HisKIX (His-tagged CBP KIX domain); test: fluorescence polarization competition; displaces 25 nM fluorescein-labelled PPKID6^U from 3.0 µM HisKIX
[19] = molecular target: T1, HisKIX (His-tagged CBP KIX domain); test: fluorescence polarization competition: 25 nM fluorescein-labelled PPKID4^P on 1.5 uM HisKIX, unlabelled KID-AB^P titrated
Experimental: Each point represents an average of three independent samples; the error bars denote standard error.
6) Fluorescence polarization—Fluorescence polarization experiments were performed with a Photon Technology International QuantaMaster C-60 spectrofluorimeter at 25° C. in a 1 cm pathlength Hellma cuvette. […] Briefly, an aliquot of fluorescently labeled peptide was added to a final concentration of 25-50 nM and the binding reaction was incubated for 30 min at 25° C. Thirty minutes was a sufficient length of time for the binding reaction to reach equilibrium, as judged by an absence of change in the observed polarization value of the sample with the highest HisKIX concentration over 1 h.

T15 sequence (P45481 586-665 limits assumed): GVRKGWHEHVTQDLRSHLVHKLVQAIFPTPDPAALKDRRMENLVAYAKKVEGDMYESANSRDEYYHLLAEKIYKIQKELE
Chain of carbonic anhydrase II (Sigma) (P00921 2-260): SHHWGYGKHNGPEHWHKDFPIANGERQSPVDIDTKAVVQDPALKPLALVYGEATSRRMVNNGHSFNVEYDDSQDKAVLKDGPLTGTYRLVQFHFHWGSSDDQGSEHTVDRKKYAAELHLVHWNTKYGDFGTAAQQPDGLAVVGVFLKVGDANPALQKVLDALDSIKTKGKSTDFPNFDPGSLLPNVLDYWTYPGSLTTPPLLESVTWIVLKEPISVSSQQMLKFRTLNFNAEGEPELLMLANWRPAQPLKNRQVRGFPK
T1 sequence (P45481 586-672): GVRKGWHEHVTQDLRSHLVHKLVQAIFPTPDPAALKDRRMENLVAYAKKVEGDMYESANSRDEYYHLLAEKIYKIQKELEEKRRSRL
T10 sequence (P45481 586-665 I657A limits assumed): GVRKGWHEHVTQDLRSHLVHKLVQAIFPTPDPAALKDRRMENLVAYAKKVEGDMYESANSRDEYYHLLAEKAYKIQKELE
T13 sequence (P45481 586-665 E655A limits assumed): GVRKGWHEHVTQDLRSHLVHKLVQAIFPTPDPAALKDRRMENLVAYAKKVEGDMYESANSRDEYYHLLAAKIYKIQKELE
T4 sequence (P45481 586-665 Y658F limits assumed): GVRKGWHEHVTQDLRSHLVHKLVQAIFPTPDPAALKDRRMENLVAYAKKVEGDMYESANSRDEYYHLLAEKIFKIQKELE
T6 sequence (P45481 586-665 Y650A limits assumed): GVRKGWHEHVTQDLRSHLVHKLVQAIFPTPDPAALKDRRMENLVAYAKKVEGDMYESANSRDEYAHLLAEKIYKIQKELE
T5 sequence (P45481 586-665 K662A limits assumed): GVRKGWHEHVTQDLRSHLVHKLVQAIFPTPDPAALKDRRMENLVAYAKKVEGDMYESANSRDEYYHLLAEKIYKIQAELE
T8 sequence (P45481 other isoform, or with tags, fused parts or gaps mutant limits assumed): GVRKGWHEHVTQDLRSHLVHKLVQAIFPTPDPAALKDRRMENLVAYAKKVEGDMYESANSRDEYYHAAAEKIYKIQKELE
T7 sequence (P45481 586-665 L603A limits assumed): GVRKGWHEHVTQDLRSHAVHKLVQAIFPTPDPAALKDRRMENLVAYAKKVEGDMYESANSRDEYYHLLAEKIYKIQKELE
T14 sequence (P45481 586-665 I660A limits assumed): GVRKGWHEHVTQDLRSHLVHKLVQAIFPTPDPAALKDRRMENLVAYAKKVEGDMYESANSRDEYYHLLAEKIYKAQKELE
T3 sequence (P45481 586-665 Y658A limits assumed): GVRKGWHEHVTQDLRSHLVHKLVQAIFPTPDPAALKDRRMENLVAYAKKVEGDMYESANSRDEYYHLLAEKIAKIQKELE
T11 sequence (P45481 586-665 L599A limits assumed): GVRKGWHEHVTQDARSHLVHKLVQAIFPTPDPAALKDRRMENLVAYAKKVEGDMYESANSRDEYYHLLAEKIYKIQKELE
T12 sequence (P45481 586-665 Q661A limits assumed): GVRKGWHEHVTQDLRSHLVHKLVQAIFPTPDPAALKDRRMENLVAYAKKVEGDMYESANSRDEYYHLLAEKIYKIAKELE
T9 sequence (P45481 586-665 K606A limits assumed): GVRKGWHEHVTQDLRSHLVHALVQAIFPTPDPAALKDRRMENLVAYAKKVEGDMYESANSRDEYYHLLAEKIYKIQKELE
T2 sequence (P45481 586-665 Y650A limits assumed): as the sequence (P45481 586-665 Y650A limits assumed) above

GASDMTYWGDDAPVRRLSFFYILLDLYLDAPGVC(acetamidofluorescein″)-NH2 (designed binder, also called PPKID1 (unphosphorylated)) [PPKID1^U]
ΔΔG against peptide C^U [1]: 0.1 kcal/mol

GISWPTFEGDDAPVRRLEFFYILLDLYLDAPGVC(acetamidofluorescein″)-NH2 (designed binder) [PPKID6 S18E]
ΔΔG against PPKID6^U [2]: 1.2 kcal/mol

GISWPTFEGDDAPVRRL[pS]FFYILLDLYLDAPGVC(acetamidofluorescein″)-NH2 (designed binder, also called PPKID6 (phosphorylated)) [PPKID6^P]
ΔΔG upon phosphorylation [2]: -0.5 kcal/mol

GISWPTFEGDDAPVRRLSFFYILLDLYLDAPGVC(acetamidofluorescein)-NH2 (designed binder, also called PPKID6 (unphosphorylated)) [PPKID6^U]
Kd [3]: 0.712 µM
Krel = Kd (CalM)/Kd (HisKIX) (calmodulin (Sigma) [4]): > 112
Krel = Kd (CA)/Kd (HisKIX) [5]: 53
ΔΔG against wild type CBP KIX (CBP KIX variant Y658A): 0.68 kcal/mol
ΔΔG against wild type CBP KIX (CBP KIX variant Y658F): 0.97 kcal/mol
ΔΔG against wild type CBP KIX (CBP KIX variant K662A): 0.71 kcal/mol
ΔΔG against wild type CBP KIX [6]: 0.52 kcal/mol
ΔΔG against wild type CBP KIX (CBP KIX variant L603A): 0.91 kcal/mol
ΔΔG against wild type CBP KIX [7]: -0.8 kcal/mol
ΔΔG against wild type CBP KIX (CBP KIX variant K606A): 0.47 kcal/mol
ΔΔG against wild type CBP KIX (CBP KIX variant I657A): 1.1 kcal/mol
ΔΔG against wild type CBP KIX (CBP KIX variant L599A): 1.1 kcal/mol
ΔΔG against wild type CBP KIX (CBP KIX variant Q661A): -0.16 kcal/mol
ΔΔG against wild type CBP KIX (CBP KIX variant E655A): 0.68 kcal/mol
ΔΔG against wild type CBP KIX (CBP KIX variant I660A): 1.4 kcal/mol
Kd (calmodulin (Sigma) [8]): > 168 µM
Kd [9]: 79 µM

B1: PPKID4^P (designed binder)
peptide: GPSQPTYPGDDAPVRRL[pS]FFYILLDLYLDAPGVC(acetamidofluorescein)-NH2
notes: also called PPKID4 (phosphorylated); wild type PPKID4^P
ΔΔG against wild type CBP KIX (CBP KIX variant Y658A): 1.1 kcal/mol
ΔΔG against wild type CBP KIX (CBP KIX variant Y658F): 1.1 kcal/mol
ΔΔG against wild type CBP KIX (CBP KIX variant K662A): 1.1 kcal/mol
ΔΔG against wild type CBP KIX [6]: 0.95 kcal/mol
ΔΔG against wild type CBP KIX (CBP KIX variant L603A): 1 kcal/mol
ΔΔG against wild type CBP KIX [7]: 0.93 kcal/mol
ΔΔG against wild type CBP KIX (CBP KIX variant K606A): 0.97 kcal/mol
ΔΔG against wild type CBP KIX (CBP KIX variant I657A): 0.89 kcal/mol
ΔΔG against wild type CBP KIX (CBP KIX variant L599A): 0.58 kcal/mol
ΔΔG against wild type CBP KIX (CBP KIX variant Q661A): 0.35 kcal/mol
ΔΔG against wild type CBP KIX (CBP KIX variant E655A): -0.07 kcal/mol
ΔΔG against wild type CBP KIX (CBP KIX variant I660A): 0.35 kcal/mol
Kd (calmodulin (Sigma) [8]): 52 µM
Kd [9]: 106 µM
Kd (calmodulin (Sigma) [10]): 51 µM

H-GASQPTYPGDDAPVRRL[pS]FFYILLDLYLDAPGVC(Fluorescein(5-NHCOCH2))-NH2 (designed binder) [PPKID4^P variant P2A]
ΔΔG against wild type PPKID4^P [11]: 0.21 kcal/mol

H-GPSQPTYPGDDAPVRRL[pS]FFYILLDLALDAPGVC(Fluorescein(5-NHCOCH2))-NH2 (designed binder) [PPKID4^P variant Y27A]
ΔΔG against wild type PPKID4^P [11]: 0.96 kcal/mol

H-GPSQATYPGDDAPVRRL[pS]FFYILLDLYLDAPGVC(Fluorescein(5-NHCOCH2))-NH2 (designed binder) [PPKID4^P variant P5A]
ΔΔG against wild type PPKID4^P [11]: 0.3 kcal/mol

H-GPSQPTYPGDDAPVRRL[pS]FFYILADLYLDAPGVC(Fluorescein(5-NHCOCH2))-NH2 (designed binder) [PPKID4^P variant L24A]
ΔΔG against wild type PPKID4^P [11]: 0.38 kcal/mol

H-GPSQPTYPGDDAPVRRA[pS]FFYILLDLYLDAPGVC(Fluorescein(5-NHCOCH2))-NH2 (designed binder) [PPKID4^P variant L17A]
ΔΔG against wild type PPKID4^P [11]: 0.07 kcal/mol

H-GPSQPTYPGDDAPVRRL[pS]FFYILLDLYADAPGVC(Fluorescein(5-NHCOCH2))-NH2 (designed binder) [PPKID4^P variant L28A]
ΔΔG against wild type PPKID4^P [11]: 0.18 kcal/mol

H-GPSQPTYPGDDAPVRRL[pS]FAYILLDLYLDAPGVC(Fluorescein(5-NHCOCH2))-NH2 (designed binder) [PPKID4^P variant F20A]
ΔΔG against wild type PPKID4^P [11]: 0.85 kcal/mol

H-GPSQPTYAGDDAPVRRL[pS]FFYILLDLYLDAPGVC(Fluorescein(5-NHCOCH2))-NH2 (designed binder) [PPKID4^P variant P8A]
ΔΔG against wild type PPKID4^P [11]: 0.33 kcal/mol

RRLSFFYILLDLYLDAPGVC(acetamidofluorescein)-NH2 [peptide C^U]
ΔΔG against KID-B^U [2]: ≥ -1.5 kcal/mol
Krel = Kd (CA)/Kd (HisKIX) [5]: 3

B2: p4099, fluorescein-labelled (designed binder)
peptide: GPSQPTYPGDDAPVEDLIRFVGRLLAYFGDTINRYC(5‑iodoacetamidofluorescein)-NH2
notes: p4121-flu tied to p4099 by order and mass difference only; also called p4099 (GAGT); p4121-flu
Kd [12]: 8.6 µM
Kd (calmodulin (Sigma) [13]): 25 µM

GQVGRQLAIIGDDINRYC(5‑iodoacetamidofluorescein)-NH2 (also called Bak BH3 peptide; Bak 72-94) [Bak peptide, fluorescein-labelled (Bak-flu)]
Kd [12]: 22 µM
Kd (calmodulin (Sigma) [13]): 25 µM

GASPHTSSGDDAPVRRLSFFDILLDLYLDAPGVC(acetamidofluorescein″)-NH2 (designed binder, also called PPKID3 (unphosphorylated)) [PPKID3^U]
ΔΔG against peptide C^U [1]: -0.7 kcal/mol

RRL[pS]FFYILLDLYLDAPGVC(acetamidofluorescein)-NH2 [peptide C^P (chimeric α-helical portion of the PPKID peptides, residues 15-33, phosphorylated)]
fold lower affinity than PPKID4^P (calmodulin (Sigma) [14]): 4 fold
ΔΔG against KID-B^P [2]: -1.8 kcal/mol
Krel = Kd (CalM)/Kd (HisKIX) (calmodulin (Sigma) [4]): 74
Krel = Kd (CA)/Kd (HisKIX) [5]: 40
Kd [15]: 2.4 µM
Kd (calmodulin (Sigma) [8]): 178 µM
Kd [16]: 2.4 µM

TDSQKRREILSRRP[pS]YRKILNDLSSDAPGVC-NH2 (also called CREB KID^P) [unlabeled KID-AB^P]
IC50 [17]: 3.2 µM
IC50 [18]: 2.4 µM
IC50 (read off the curve) [19]: ~3 µM
